Measured values: patent EP2170953B1

Target: Aβ1-28 peptide, biotinylated (Anaspec)
Assay: ELISA on biotinylated peptide, Ab 10 µg/ml, mean of 2, background subtracted
Conditions: remark: other sources report otherwise

Aβ1-28 peptide, biotinylated (Anaspec), sequence (chain, as listed by the source): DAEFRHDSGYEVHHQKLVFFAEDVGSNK

B1: ACI-12-Ab-11 (antibody, V domains shown)
VL: QAVVTQESALTTSPGGTVILTCRSSTGAVTTSNYANWVQEKPDHLFTGLIGGTSNRAPGVPVRFSGSLIGDKAALTITGAQTEDDAMYFCALWYSTHYVFGGGTKVTVL
VH: QVQLQQSDAELVKPGASVKISCKVSGYTFTDHTIHWMKQRPEQGLEWIGYIYPRDGSTKYNEKFKGKATLTADKSSSTAYMQLNSLTSEDSAVYFCARDYGYAFDYWGQGTTLTVSS
modifications: here or on the partner: biotinylated (position not given)
Question: With B1 as the binder, how does the O.D. (mean) read?
Answer: Its O.D. (mean) is -0.02 O.D.
